Results taken from paper PMC6926487.

Molecular target: GST-Rac1A, active (GTPγs-bound) (Dictyostelium) (UniProt P34144)
Assay: pull-down; GST-Rac on glutathione magnetic agarose beads, loaded with GTPγs; Dictyostelium lysate (50 mM Tris HCl pH 8, 100 mM NaCl, 30 mM MgCl2, 0.1% Triton X-100, 1 mM DTT) added for 1 hour at 4°C; immunoblot anti-GFP

An immunoblot quantification of binding to active Rac1 (%) of 1.9% was found for “GFP-WASP (Dictyostelium Wiskott-Aldrich syndrome protein, wild type) (natural protein)” in this work.
